Measured values reported in US5827666A, “Synthetic multiple tandem repeat mucin and mucin-like peptides, and uses thereof” (priority 1994, dated 1998).

Assay: circular dichroism at 25-90° C.
Assay type: physicochemical
Conditions: 0.01M phosphate buffer pH 7.2

**Q.** With “TITPPQAMGPNLVLPDQKPPSRQSQTGSKVATQRPQTNESAPRSVAPTTVGPKRIGTGDR (TITPPQAMGPNLVLPDQKPPSRQSQTGSKVATQRPQTNESAPRSVAPTTVGPKRIGTGDR) [PRN60, 60 amino acid proline-rich domain of feline leukemia virus gp-70]” as the sequence, how does the “decrease of CD intensity at 198 nm at 90° C. as compared to 25° C.” value read?
**A.** 29%
